The term koff denotes a measure of how fast the partners let go of each other. The kon is a measure of how fast the partners come together.

First the molecules themselves.
T1: cynomolgus monkey FcγRIIIaS extracellular domain, C-terminal His-tag (cynomolgus monkey, UniProt Q8SPW2 21-206 at identity 1.00))
T1 construct: also called cyno FcγRIIIaS; FcgRIIIaS
T1 chain: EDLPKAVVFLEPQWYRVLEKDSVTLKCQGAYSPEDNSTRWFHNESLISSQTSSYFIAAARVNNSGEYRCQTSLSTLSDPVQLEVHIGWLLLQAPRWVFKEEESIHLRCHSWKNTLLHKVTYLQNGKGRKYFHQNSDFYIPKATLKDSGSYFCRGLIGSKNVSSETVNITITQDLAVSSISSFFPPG

T2: cynomolgus monkey FcγRIIa3 extracellular domain, C-terminal His-tag (cynomolgus monkey)
T2 construct: also called cyno FcγRIIa3; FcgRIIa3
T2 chain: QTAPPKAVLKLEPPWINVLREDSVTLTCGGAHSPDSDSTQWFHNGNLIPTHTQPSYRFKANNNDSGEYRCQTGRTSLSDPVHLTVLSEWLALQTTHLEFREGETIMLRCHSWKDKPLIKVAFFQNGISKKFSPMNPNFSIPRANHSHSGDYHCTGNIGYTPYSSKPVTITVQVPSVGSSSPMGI

T3: cynomolgus monkey FcγRIIb extracellular domain, C-terminal His-tag (cynomolgus monkey)
T3 construct: also called cyno FcγRIIb; cynoFcγRIIb
T3 chain: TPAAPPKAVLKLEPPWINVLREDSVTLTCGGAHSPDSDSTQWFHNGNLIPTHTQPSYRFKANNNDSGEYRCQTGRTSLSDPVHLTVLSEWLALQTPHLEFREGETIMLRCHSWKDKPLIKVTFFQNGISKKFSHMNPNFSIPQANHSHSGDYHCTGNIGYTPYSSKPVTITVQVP

T4: cynomolgus monkey FcγRIIa1 extracellular domain, C-terminal His-tag (cynomolgus monkey)
T4 construct: also called cyno FcγRIIa1; FcgRIIa1
T4 chain: T2 chain with T95P, A121T, S128A, P133H, N135D

T5: cynomolgus monkey FcγRIIa2 extracellular domain, C-terminal His-tag (cynomolgus monkey)
T5 construct: also called cyno FcγRIIa2; FcgRIIa2
T5 chain: T2 chain with I127K, K130N, P133H, R142Q

T6: Human latent myostatin (human, UniProt O14793 25-266; O14793 267-375)
T6 construct: Biotinylated in the ELISAs; also called human myostatin latent form
T6 sequence 1: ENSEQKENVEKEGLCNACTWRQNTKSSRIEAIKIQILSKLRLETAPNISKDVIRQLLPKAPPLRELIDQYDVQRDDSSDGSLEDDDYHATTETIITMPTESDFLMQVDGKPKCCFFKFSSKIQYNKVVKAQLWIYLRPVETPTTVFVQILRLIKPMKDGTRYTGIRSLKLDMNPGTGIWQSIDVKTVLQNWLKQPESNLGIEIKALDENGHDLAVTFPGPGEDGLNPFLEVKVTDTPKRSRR
T6 sequence 2: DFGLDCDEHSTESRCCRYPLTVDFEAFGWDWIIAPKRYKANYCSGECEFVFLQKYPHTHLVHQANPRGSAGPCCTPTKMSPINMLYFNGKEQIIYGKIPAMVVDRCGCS

B1: M103205H795-MY001/M103202L889-SK1 (antibody, human IgG1, kappa)
heavy: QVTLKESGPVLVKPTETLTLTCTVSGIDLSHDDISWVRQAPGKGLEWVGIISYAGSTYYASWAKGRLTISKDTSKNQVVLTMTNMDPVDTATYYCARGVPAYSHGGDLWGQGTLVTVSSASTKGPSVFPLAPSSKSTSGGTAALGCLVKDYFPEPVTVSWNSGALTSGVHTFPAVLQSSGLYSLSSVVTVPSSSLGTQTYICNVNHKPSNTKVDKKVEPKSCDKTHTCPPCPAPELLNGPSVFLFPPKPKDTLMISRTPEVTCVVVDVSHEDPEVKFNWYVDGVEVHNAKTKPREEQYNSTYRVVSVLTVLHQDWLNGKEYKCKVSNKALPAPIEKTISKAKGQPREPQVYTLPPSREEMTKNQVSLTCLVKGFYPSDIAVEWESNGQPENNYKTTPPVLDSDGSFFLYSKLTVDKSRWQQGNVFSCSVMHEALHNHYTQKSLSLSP
light: DIVMTQSPATLSLSPGERATLSCTSSQSVYHANWLSWFQQKPGQPPKLLIYWASTLAYGVPSRFSGSGSGTDFTLTISSLQPEDAATYYCAGGYGGGRYAFGQGTKVEIKRTVAAPSVFIFPPSDEQLKSGTASVVCLLNNFYPREAKVQWKVDNALQSGNSQESVTEQDSKDSTYSLSSTLTLSKADYEKHKVYACEVTHQGLSSPVTKSFNRGEC
notes: also called G236N
B2: M103205H795-SG168/M103202L889-SK1 (antibody, human IgG1, kappa)
heavy: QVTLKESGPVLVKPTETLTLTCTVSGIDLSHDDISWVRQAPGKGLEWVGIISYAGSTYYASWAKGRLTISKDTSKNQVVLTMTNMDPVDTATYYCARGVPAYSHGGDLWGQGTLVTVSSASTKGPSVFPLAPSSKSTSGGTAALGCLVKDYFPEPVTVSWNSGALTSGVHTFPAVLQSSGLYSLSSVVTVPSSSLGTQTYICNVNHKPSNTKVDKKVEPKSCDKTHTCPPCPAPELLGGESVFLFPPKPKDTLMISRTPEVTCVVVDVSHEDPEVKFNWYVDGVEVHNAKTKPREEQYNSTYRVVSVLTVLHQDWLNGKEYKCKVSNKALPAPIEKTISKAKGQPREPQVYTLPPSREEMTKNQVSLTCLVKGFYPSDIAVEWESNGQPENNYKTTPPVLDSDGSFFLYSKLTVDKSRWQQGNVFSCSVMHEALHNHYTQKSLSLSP
light: B1 light
notes: also called P238E
B3: M103205H795-SG174/M103202L889-SK1 (antibody, human IgG1, kappa)
heavy: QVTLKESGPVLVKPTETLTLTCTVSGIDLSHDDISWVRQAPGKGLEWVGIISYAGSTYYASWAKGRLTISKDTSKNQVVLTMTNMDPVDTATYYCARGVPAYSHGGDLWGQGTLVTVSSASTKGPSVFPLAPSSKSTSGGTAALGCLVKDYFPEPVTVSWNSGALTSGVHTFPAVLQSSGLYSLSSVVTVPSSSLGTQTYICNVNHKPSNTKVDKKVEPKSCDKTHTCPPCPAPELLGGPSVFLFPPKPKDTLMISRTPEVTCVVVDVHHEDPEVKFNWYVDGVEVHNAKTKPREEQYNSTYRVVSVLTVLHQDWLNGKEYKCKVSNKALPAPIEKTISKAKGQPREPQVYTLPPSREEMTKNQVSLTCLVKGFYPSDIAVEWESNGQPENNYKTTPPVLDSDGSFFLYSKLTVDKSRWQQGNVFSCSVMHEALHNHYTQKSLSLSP
light: B1 light
notes: also called S267H
B4: M103205H795-SG167/M103202L889-SK1 (antibody, human IgG1, kappa)
heavy: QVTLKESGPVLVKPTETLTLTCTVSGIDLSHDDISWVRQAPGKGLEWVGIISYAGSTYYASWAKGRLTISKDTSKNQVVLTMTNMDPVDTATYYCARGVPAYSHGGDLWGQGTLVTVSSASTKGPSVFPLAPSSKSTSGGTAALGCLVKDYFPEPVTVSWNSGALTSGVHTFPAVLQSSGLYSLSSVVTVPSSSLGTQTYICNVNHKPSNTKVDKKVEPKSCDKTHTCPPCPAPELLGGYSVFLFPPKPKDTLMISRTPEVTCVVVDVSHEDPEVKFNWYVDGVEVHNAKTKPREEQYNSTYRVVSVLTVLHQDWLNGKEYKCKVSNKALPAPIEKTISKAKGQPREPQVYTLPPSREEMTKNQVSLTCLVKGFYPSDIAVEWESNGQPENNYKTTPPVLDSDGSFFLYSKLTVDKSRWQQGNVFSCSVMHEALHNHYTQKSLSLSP
light: B1 light
notes: also called P238Y
B5: M103205H795-SG169/M103202L889-SK1 (antibody, human IgG1, kappa)
heavy: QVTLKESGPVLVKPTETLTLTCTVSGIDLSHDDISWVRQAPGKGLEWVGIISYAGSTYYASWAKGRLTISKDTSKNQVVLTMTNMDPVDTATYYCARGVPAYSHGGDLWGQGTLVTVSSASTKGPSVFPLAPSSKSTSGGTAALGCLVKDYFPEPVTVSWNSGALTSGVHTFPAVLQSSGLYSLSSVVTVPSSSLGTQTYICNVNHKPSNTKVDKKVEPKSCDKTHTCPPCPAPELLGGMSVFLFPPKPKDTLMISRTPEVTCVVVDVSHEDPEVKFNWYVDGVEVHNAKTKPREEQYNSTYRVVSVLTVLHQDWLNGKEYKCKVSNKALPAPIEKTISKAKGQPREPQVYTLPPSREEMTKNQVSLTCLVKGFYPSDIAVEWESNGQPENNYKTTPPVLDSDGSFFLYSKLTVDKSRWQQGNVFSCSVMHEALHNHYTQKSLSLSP
light: B1 light
notes: also called P238M
B6: M103205H795-SG170/M103202L889-SK1 (antibody, human IgG1, kappa)
heavy: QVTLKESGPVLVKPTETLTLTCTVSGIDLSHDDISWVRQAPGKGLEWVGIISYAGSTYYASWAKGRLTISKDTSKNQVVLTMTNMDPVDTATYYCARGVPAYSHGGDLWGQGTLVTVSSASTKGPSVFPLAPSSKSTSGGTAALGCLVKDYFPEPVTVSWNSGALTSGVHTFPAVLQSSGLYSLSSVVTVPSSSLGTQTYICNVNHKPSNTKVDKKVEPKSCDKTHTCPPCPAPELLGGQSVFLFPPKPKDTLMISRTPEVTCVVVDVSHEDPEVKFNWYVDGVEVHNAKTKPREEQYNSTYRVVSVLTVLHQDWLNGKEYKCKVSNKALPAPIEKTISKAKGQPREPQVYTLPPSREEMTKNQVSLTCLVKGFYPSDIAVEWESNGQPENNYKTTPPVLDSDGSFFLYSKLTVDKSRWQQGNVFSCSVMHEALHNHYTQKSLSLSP
light: B1 light
notes: also called P238Q
B7: M103205H795-SG166/M103202L889-SK1 (antibody, human IgG1, kappa)
heavy: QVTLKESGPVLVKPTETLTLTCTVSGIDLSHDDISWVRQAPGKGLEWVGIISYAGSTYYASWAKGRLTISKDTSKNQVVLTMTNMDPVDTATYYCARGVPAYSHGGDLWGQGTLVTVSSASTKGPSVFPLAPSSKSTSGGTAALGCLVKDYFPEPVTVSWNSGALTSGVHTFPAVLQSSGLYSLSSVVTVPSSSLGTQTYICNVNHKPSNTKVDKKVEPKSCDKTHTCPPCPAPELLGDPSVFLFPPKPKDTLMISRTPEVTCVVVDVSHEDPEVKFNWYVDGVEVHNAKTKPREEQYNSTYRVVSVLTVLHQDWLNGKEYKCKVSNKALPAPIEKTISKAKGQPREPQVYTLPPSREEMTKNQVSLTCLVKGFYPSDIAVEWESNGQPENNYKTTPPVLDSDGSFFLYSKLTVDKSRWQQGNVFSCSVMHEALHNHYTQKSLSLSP
light: B1 light
notes: also called G237D
B8: M103205H795-SG173/M103202L889-SK1 (antibody, human IgG1, kappa)
heavy: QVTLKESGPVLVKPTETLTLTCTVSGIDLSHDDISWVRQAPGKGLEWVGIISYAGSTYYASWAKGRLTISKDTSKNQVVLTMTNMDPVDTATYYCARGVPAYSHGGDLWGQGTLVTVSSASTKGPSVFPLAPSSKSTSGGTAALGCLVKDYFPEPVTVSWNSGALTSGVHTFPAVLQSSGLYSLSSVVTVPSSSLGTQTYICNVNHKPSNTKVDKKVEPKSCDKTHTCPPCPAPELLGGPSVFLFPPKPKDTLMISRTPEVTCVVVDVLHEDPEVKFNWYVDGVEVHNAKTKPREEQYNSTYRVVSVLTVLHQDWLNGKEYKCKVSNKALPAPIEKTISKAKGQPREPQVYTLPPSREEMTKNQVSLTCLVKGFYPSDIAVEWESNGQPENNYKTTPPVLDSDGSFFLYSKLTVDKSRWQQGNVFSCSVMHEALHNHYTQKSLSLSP
light: B1 light
notes: also called S267L
B9: M103205H795-SG172/M103202L889-SK1 (antibody, human IgG1, kappa)
heavy: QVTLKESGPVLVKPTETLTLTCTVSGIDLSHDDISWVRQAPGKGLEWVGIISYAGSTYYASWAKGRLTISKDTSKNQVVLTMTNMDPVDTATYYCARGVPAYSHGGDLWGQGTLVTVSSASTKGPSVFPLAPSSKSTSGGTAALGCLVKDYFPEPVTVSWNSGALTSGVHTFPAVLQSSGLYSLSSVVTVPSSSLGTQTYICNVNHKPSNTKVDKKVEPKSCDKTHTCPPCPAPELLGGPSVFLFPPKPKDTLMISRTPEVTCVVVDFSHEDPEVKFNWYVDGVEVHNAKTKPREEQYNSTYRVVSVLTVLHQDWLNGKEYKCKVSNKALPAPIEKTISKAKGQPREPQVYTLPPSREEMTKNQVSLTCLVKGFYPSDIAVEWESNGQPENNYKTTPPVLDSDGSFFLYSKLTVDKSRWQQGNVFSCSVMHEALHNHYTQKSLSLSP
light: B1 light
notes: also called V266F
B10: M103205H795-SG165/M103202L889-SK1 (antibody, human IgG1, kappa)
heavy: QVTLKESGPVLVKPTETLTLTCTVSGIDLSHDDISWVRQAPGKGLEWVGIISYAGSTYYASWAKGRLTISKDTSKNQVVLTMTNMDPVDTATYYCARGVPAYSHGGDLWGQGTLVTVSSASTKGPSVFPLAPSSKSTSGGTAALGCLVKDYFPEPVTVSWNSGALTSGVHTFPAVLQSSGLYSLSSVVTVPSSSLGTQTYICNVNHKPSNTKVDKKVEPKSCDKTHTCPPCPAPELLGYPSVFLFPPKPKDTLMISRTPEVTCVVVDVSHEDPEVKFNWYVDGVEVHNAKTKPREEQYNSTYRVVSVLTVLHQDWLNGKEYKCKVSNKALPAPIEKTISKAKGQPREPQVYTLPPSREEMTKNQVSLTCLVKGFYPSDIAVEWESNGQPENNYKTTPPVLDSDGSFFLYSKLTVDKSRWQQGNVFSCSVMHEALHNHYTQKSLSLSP
light: B1 light
notes: also called G237Y
B11: M103205H795-SG171/M103202L889-SK1 (antibody, human IgG1, kappa)
heavy: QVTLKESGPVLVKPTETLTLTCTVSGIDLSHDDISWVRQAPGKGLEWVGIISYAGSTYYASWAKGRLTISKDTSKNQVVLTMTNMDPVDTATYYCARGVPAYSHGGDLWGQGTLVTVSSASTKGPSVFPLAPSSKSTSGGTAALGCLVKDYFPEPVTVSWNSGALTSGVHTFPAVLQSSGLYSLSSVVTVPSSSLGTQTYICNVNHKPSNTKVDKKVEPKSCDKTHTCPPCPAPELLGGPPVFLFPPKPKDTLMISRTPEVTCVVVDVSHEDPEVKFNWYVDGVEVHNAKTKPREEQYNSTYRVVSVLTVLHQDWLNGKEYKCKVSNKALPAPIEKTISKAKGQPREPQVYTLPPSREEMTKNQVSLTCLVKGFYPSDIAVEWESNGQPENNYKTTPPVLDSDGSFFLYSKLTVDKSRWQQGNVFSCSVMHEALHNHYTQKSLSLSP
light: B1 light
notes: also called S239P
B12: M103205H795-SG175/M103202L889-SK1 (antibody, human IgG1, kappa)
heavy: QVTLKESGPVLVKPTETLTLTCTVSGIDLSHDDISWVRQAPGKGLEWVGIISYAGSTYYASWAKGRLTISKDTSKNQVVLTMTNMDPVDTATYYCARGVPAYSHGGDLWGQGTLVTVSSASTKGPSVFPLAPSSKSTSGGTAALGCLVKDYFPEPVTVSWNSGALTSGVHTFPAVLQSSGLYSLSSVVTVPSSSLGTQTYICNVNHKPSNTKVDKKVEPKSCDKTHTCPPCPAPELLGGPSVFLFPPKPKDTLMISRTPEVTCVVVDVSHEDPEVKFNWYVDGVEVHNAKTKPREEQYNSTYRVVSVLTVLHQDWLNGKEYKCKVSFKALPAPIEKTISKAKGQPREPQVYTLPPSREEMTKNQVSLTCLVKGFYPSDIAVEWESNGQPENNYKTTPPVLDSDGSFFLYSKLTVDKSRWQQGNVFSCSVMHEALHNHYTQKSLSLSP
light: B1 light
notes: also called N325F
B13: MS_M103205H707-SG1/M103202L802-SK1 (antibody, human IgG1, kappa, V domains shown)
VH: QVTLKESGPVLVKPTETLTLTCTVSGIDLSHYDISWVRQAPGKGLEWVGIISYAGSTYYASWAKGRLTISKDTSKNQVVLTMTNMDPVDTATYYCARGVPAYSHGGDLWGQGTLVTVSS
VL: DIVMTQSPATLSLSPGERATLSCTSSQSVYHDNWLSWFQQKPGQPPKLLIYWASTLAYGVPSRFSGSGSGTDFTLTISSLQPEDAATYYCAGGYGGGLYAFGQGTKVEIKR
notes: also called MS1032LO04-SG1; MSLO-04

Where a chain is given by its changes, count along the chain named. Names may count otherwise.

The first test addresses T1, cynomolgus monkey FcγRIIIaS …. As to the kind of experiment: SPR; FcgR bound per captured antibody, normalized to SG1. Here is the method: (§1) The kinetic analysis of interactions between these antibodies and FcγR was carried out using BIACORE® T200 or BIACORE® 4000 (GE Healthcare). HBS-EP+ (GE Healthcare) was used as the running buffer, and the measurement temperature was set to 25° C. A chip produced by immobilizing Protein A. Protein A/G or mouse anti-human IgG kappa light chain (BD Biosciences) onto a Series S Sensor Chip CM4 or CM5 (GE Healthcare) by the amine-coupling method was used. […] After the measurement, the antibody captured on the chip was washed off by allowing reaction with 10 mM glycine-HCl, pH1.5 and 25 mM NaOH so that the chip was regenerated and used repeatedly. The sensorgrams obtained as measurement results were analyzed by the 1:1 Langmuir binding model using the BIACORE® Evaluation Software to calculate the binding rate constant ka (L/mol/s) and dissociation rate constant kd (l/s), and the dissociation constant KD (mol/L) was calculated from these values. […] Regarding such interactions, KD values were calculated using the following 1:1 binding model described in BIACORE® T100 Software Handbook BR1006-48 Edition AE.
(§2) The value of the amount of FcγR binding was obtained by dividing the amount of FcγR bound by the amount of each antibody captured.
As for B1, the “amount of FcgR binding (SG1 = 100)” value was found to be 15 SG1 = 100.
On the same count and under the same terms, to B2 belongs 13 SG1 = 100; to B3, 15 SG1 = 100.
Same read-out and setting: under B4 stands 14 SG1 = 100; under B5, 22 SG1 = 100; under B6, 12 SG1 = 100.
Consider B7, for which the “amount of FcgR binding (SG1 = 100)” value amounted to 5 SG1 = 100.
In the case of B8, the “amount of FcgR binding (SG1 = 100)” value is 24 SG1 = 100.
Same read-out and setting: under B9 stands 31 SG1 = 100.

The target in a further test is T2, cynomolgus monkey FcγRIIa3 …. The description is as above. The method, then:
as §1, §2
In the case of B1, the “amount of FcgR binding (SG1 = 100)” value is 62 SG1 = 100.
The same measure, in the same setting: to B2 belongs 30 SG1 = 100.
Take B3: the “amount of FcgR binding (SG1 = 100)” value was determined as 20 SG1 = 100.
The same measure, in the same setting: to B4 belongs 38 SG1 = 100; to B5, 32 SG1 = 100.
As to B6, the “amount of FcgR binding (SG1 = 100)” value came to 21 SG1 = 100.
Take B10: the “amount of FcgR binding (SG1 = 100)” value is 30 SG1 = 100.
For the molecule B7, the “amount of FcgR binding (SG1 = 100)” value was 17 SG1 = 100.
Turning to B8, the “amount of FcgR binding (SG1 = 100)” value was determined as 21 SG1 = 100.
On the same count and under the same terms, to B11 belongs 18 SG1 = 100; to B12, 17 SG1 = 100; to B9, 27 SG1 = 100.

The next test deals with T3, cynomolgus monkey FcγRIIb extracellular …. The description is as above. The method, then:
as §1, §2
In the case of B1, the “amount of FcgR binding (SG1 = 100)” value was found to be 85 SG1 = 100.
The same measure, in the same setting: under B2 stands 28 SG1 = 100.
For B3, the “amount of FcgR binding (SG1 = 100)” value amounted to 11 SG1 = 100.
Still for that read-out and setting: to B4 belongs 22 SG1 = 100.
Turning to B5, the “amount of FcgR binding (SG1 = 100)” value is 22 SG1 = 100.
Same read-out and setting: under B6 stands 18 SG1 = 100.
In the case of B10, the “amount of FcgR binding (SG1 = 100)” value is 30 SG1 = 100.
The same measure, in the same setting: to B8 belongs 12 SG1 = 100; to B11, 20 SG1 = 100.
Regarding B12, the “amount of FcgR binding (SG1 = 100)” value came to 14 SG1 = 100.
Same read-out and setting: to B9 belongs 16 SG1 = 100.

The next test addresses T4, cynomolgus monkey FcγRIIa1 …. The test is described as above. Here is the method: as §1, §2
For B1, the “amount of FcgR binding (SG1 = 100)” value was determined as 83 SG1 = 100.
On the same count and under the same terms, under B2 stands 21 SG1 = 100.
B3: the “amount of FcgR binding (SG1 = 100)” value stood at 13 SG1 = 100.
As for B4, the “amount of FcgR binding (SG1 = 100)” value is 18 SG1 = 100.
On the same count and under the same terms, under B5 stands 17 SG1 = 100.
As to B6, the “amount of FcgR binding (SG1 = 100)” value is 16 SG1 = 100.
In the case of B10, the “amount of FcgR binding (SG1 = 100)” value worked out at 18 SG1 = 100.
With B7, the “amount of FcgR binding (SG1 = 100)” value was 10 SG1 = 100.
Same read-out and setting: under B8 stands 13 SG1 = 100.
Still for that read-out and setting: to B11 belongs 17 SG1 = 100; to B12, 13 SG1 = 100.
The same measure, in the same setting: to B9 belongs 14 SG1 = 100.

The next test concerns the target T5, cynomolgus monkey FcγRIIa2 …. The test is described as above. The method, then: as §1, §2
B1: the “amount of FcgR binding (SG1 = 100)” value was 86 SG1 = 100.
In the case of B2, the “amount of FcgR binding (SG1 = 100)” value is 16 SG1 = 100.
Take B3: the “amount of FcgR binding (SG1 = 100)” value came to 16 SG1 = 100.
As for B4, the “amount of FcgR binding (SG1 = 100)” value worked out at 14 SG1 = 100.
On the same count and under the same terms, under B5 stands 16 SG1 = 100; under B6, 15 SG1 = 100; under B10, 17 SG1 = 100.
Same read-out and setting: to B7 belongs 10 SG1 = 100; to B8, 14 SG1 = 100; to B11, 20 SG1 = 100.
The same measure, in the same setting: under B12 stands 13 SG1 = 100; under B9, 17 SG1 = 100.

The target of a further test is T6, Human latent myostatin. As to the kind of experiment: SPR (BIACORE T200), 37 C, pH7.4, avidity condition (capture 185 RU), 1:1 fit; pH 7.4. The method, then:
The kinetic parameters of anti-latent myostatin antibodies against human, cynomolgus monkey (cyno), and mouse latent myostatin were assessed at 37° C. at pH7.4 using a BIACORE® T200 instrument (GE Healthcare). ProA/G (Pierce) was immobilized onto all flow cells of a CM4 chip using amine coupling kit (GE Healthcare). Anti-latent myostatin antibody and analytes were prepared in ACES pH7.4 (20 mM ACES, 150 mM NaCl, 1.2 mM CaCl₂), 0.05% TWEEN® 20, 0.005% NaN₃). […] Then human, cyno, or mouse latent myostatin was injected at 3.125 to 50 nM prepared by two-fold serial dilution, followed by dissociation. The sensor surface was regenerated with 25 mM NaOH. Kinetic parameters were determined by processing and fitting the data to a 1:1 binding model using BIACORE® T200 Evaluation software, version 2.0 (GE Healthcare).
All experimental settings were the same as in Example 7, except that measurements were also performed in ACES pH5.8 buffer in addition to ACES pH7.4 condition. Some antibodies were only measured against human latent myostatin. Antibody capture level was aimed at 185 RU and 18.5 RU, for avidity and affinity assay, respectively. Kinetic parameters were determined using 1:1 Binding fitting using BIACORE® T200 Evaluation software, version 2.0 (GE Healthcare).
On the technique in general: SPR reads the build-up and loss of mass on a sensor chip optically.
With B13, the Kd was determined as 163 pM, the koff came out at 0.000217 s⁻¹ and the kon is 1.33e+06 M⁻¹ s⁻¹.
